B1: VH:VL chains; a variant is named by its letters at X, in order (parent)
chain 1: QVQLVQSGAEVKKPGASVKVSCKASGYTFTDYXMHWVRQAPGQGLEWMGXVNPNXXXTTYNQKFEGRVTMTTDTSTSTAYMELRSLRSDDTAVYYCARXNXLDXWGQGTTVTVSS
chain 2: DIQMTQSPSSLSASVGDRVTITCSVSSSVSSIYLHWYQQKPGKAPKLLIYSTSNLASGVPSRFSGSGSGTDFTLTISSLQPEDFATYYCQVYSGYPLTFGGGTKVEIK

The variants in the series derive from B1. Kind of series: yeast display scFab, FACS + sequencing. The gist of the method:
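Non-specific binding was called from deep sequencing of sorted yeast cells displaying a heavy-chain CDR mutant scFab library. Cells labelled with anti-Myc and biotinylated ovalbumin (260 μg/mL in PBSB, 3 h, room temperature) or soluble membrane proteins (130 μg/mL, 20 min on ice) were FACS-sorted, collecting the top 25% and bottom 10% of binders from two replicates. A sequence was positive when present in ≥3 of 4 pooled positive samples and absent from all negatives, and negative under the converse rule.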
As to YRTRDAWV, the non-specific binding call was “binds”. For YKGKGAVA the value was “binds”. Turning to YRGAGSVD, the non-specific binding call was “binds”. The result for ATGGAALD reads “no binding”; that for DKEGGYSV, “no binding”; that for YRKGGAAY, “binds”.

DGGKNDGD: the non-specific binding call is “no binding”.

In the case of YKGKGSVA, the non-specific binding call is listed as “binds”. YRARGSVF: the non-specific binding call is listed as “binds”. Consider SEAGDAVV, for which the non-specific binding call is on record as “no binding”. The result for FRTRGAAA reads “binds”; that for FKTGDAWS, “binds”; that for YAKGDYSV, “no binding”. As to YRGRDASS, the non-specific binding call was “no binding”. For DREEGSSA the value was “no binding”.

Take FRGADSGF chain 1 R98K: the non-specific binding call is listed as “binds”. For DREGDYLY the value was “no binding”; for YTGEGSWV, “no binding”; for FGRRTYGD, “binds”. On to VRGGDDVF, for which the non-specific binding call is reported as “no binding”. Regarding ATAGSDGV, the non-specific binding call is recorded as “no binding”.

Take DGGTNAGD: the non-specific binding call is “no binding”. In the case of FRGKGSGV, the non-specific binding call is on record as “binds”. As for DTTGSAVA, the non-specific binding call was “no binding”. On to YTGTSAVS, for which the non-specific binding call is recorded as “no binding”.

Consider YRRGGAVA, for which the non-specific binding call is “binds”. The result for VERGGFGS reads “binds”.

Consider DAGGADAV, for which the non-specific binding call is “no binding”. For YRERGAWV the value was “binds”; for FKGRGSLS, “binds”; for FTEEGAGD, “no binding”. For STGEADAS the value was “no binding”; for VAEKGFGA, “no binding”; for DKEGGSSA, “no binding”. Take YRAGGFVA: the non-specific binding call is “binds”. For YRGRDAGF the value was “binds”; for FRGKGSAD, “binds”; for VEKGGDVS, “no binding”.

For VAEKGDWY, the non-specific binding call is given as “no binding”. The result for FRGRDDVF reads “no binding”.

For FRRGSSGD, the non-specific binding call is given as “binds”. For VRAEASVV the value was “binds”; for VRKGGSVY, “binds”. For SKAKGSGA the value was “binds”; for VTGTGSLD, “no binding”.

On to YKGRGFVY, for which the non-specific binding call was “binds”. For YRKGDSGD the value was “binds”; for VETGNSLV, “no binding”. Regarding VTGESDWY, the non-specific binding call is “no binding”. As to DEGGTDVD, the non-specific binding call is “no binding”.

For the variant VEEEGSAD, the non-specific binding call is reported as “no binding”. Regarding YRERSDVS, the non-specific binding call is on record as “binds”. In the case of VEGGTDVV, the non-specific binding call is recorded as “no binding”. The result for DRGRDDLV reads “no binding”.

For ARAGDDAV, the non-specific binding call is reported as “no binding”.

DAGGGDVA: the non-specific binding call is reported as “no binding”. As for DEARNAGA, the non-specific binding call was “no binding”.

In the case of VRGAGAWV, the non-specific binding call is recorded as “binds”.

Consider SKGTDDWV, for which the non-specific binding call was “no binding”. In the case of DTKAASWA, the non-specific binding call is “no binding”.

For the variant YRRRGYSS, the non-specific binding call is listed as “binds”. For YKGKGAWA, the non-specific binding call is “binds”. Regarding FRATSAVD, the non-specific binding call is recorded as “binds”. For FRGKGAWD the value was “binds”; for DREEGDVV, “no binding”; for YRRGSSAA, “binds”. As for VRTEDDWY, the non-specific binding call was “no binding”.

For the variant YKAGGALD, the non-specific binding call is reported as “binds”.

With VKGKGDVY, the non-specific binding call is “no binding”. For VATGSSGA the value was “no binding”; for STGTSDLY, “no binding”. Take VRAGGSAD: the non-specific binding call is on record as “binds”. Regarding VGGTSSGA, the non-specific binding call was “no binding”. For YTGEDAVA, the non-specific binding call is recorded as “no binding”. For FRAGGSGD the value was “binds”; for YKRGSSWD, “binds”. For YRRGDAGS the value was “binds”; for VRTEDDVF, “no binding”; for DRAGDSGA, “no binding”. For the variant YRTKAAVD, the non-specific binding call is “binds”. For YRGGGVVD the value was “binds”.

Consider SKGKGSWD, for which the non-specific binding call is on record as “binds”. For VRGGDAVS the value was “no binding”; for VKGASDWA, “no binding”; for YRTGAAGV, “binds”. For DREEGAGA the value was “no binding”; for VGEKGDGV, “no binding”. For YRGKGDGS the value was “binds”; for YKRRDFGV, “binds”; for VTAEDFGV, “no binding”. In the case of YRGKGAWY, the non-specific binding call was “binds”. The result for SGTADSSS reads “binds”; that for FKGEGDAA, “no binding”. For AARADFGV the value was “no binding”; for SEARSDWF, “no binding”.

In the case of YEERSDAF, the non-specific binding call was “no binding”. The result for YKRGGSWD reads “binds”; that for YKRRDSVD, “binds”. For the variant FRAGGSLF, the non-specific binding call is reported as “binds”. For DEGGTDWV the value was “no binding”; for VKAGSDVA, “no binding”; for VEEEGDGV, “no binding”. The result for DAGTGAGD reads “no binding”. The result for VKARGAGS reads “binds”. For the variant YARAGYAV, the non-specific binding call is “binds”. For VRAGDDVF the value was “no binding”; for AAGRSDLV chain 1 R67H, “no binding”. For FRRRGAWY the value was “binds”; for DEGRGSWA, “no binding”; for VTGTGSGF, “no binding”.

Turning to YKGAASGV, the non-specific binding call was “binds”. On to FAAAGFVA, for which the non-specific binding call is recorded as “binds”.

Consider YRTRDSGV, for which the non-specific binding call was “binds”.

Consider DTRGADAV, for which the non-specific binding call is on record as “no binding”. For DTAEDFGV the value was “no binding”; for FKGEGDVA, “no binding”. Regarding YRGKGSAD, the non-specific binding call is recorded as “binds”.

Source of the values: the emibetuzumab library of Makowski et al. (2022).
